From US20240024426A1, “HYPOTENSIVE PHARMACEUTICAL COMPOSITION COMPRISING TRIPLE ACTIVATOR HAVING ACTIVITY FOR ALL OF GLUCAGON, GLP-1, AND GIP RECEPTORS” (HANMI PHARM. CO., LTD., priority 2020, published 2024)
Bridges are numbered along the chain shown (N, C = ends). Where no end group is shown, it is not given here. [ ]: non-standard residue; d: D form. Aib = CC(C)(N)C(=O)O

Key:
Assay in all cases: cell-based or functional assay
human GLP-1 receptor = human GLP-1 receptor (human, UniProt P43220 24-463)
human GCG receptor = human GCG receptor (human, UniProt P47871 26-477)
human GIP receptor = biological target: T1, human GIP receptor (human, UniProt P48546 22-466)
T1 sequence (looked up): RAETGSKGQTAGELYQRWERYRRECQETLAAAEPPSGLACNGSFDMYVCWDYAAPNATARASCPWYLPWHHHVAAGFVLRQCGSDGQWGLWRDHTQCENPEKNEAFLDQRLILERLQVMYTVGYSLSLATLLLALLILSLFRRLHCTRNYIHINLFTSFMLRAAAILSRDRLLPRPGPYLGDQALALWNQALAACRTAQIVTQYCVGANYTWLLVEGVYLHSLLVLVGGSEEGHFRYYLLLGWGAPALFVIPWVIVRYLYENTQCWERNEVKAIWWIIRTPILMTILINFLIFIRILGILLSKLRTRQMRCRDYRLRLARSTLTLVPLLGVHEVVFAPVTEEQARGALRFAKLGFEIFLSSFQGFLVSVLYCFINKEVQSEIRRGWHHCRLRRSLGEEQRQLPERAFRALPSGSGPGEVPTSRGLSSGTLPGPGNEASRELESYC

human GCG receptor, sequence (P47871 26-477): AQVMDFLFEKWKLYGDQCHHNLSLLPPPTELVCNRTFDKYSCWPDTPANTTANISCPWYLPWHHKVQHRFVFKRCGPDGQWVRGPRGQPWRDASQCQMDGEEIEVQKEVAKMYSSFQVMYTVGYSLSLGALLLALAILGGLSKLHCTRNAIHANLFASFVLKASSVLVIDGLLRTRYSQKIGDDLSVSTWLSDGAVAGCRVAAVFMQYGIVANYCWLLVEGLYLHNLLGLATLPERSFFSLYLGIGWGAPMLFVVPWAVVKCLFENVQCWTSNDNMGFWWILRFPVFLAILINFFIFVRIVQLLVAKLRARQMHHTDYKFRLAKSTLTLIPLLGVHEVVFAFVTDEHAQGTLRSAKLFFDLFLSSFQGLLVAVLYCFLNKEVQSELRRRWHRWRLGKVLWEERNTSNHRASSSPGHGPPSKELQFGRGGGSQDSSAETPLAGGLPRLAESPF

B1: Triple agonist of SEQ ID NO: 27 (peptide)
peptide: H[Aib]QGTFTSDYSKYLDERACQDFVQWLLDQGGPSSGAPPPS
- In vitro activity compared with native peptide (%) vs. GLP-1 (human GLP-1 receptor): 83.1%
- In vitro activity compared with native peptide (%) vs. Glucagon (human GCG receptor): 0.8%
- In vitro activity compared with native peptide (%) vs. GIP (human GIP receptor): 0.9%

B2: Triple agonist of SEQ ID NO: 30 (peptide)
peptide: H[Aib]QGTFTSDYSKYLDEKAQKEFVQWLLDTC
modifications: bridge 16-20
- In vitro activity compared with native peptide (%) vs. GLP-1 (human GLP-1 receptor): 142%
- In vitro activity compared with native peptide (%) vs. Glucagon (human GCG receptor): 0.7%
- In vitro activity compared with native peptide (%) vs. GIP (human GIP receptor): 0.8%

B3: Triple agonist of SEQ ID NO: 31 (peptide)
peptide: H[Aib]QGTFTSDYSKYLDEKACKEFVQWLLAQ
modifications: bridge 16-20
- In vitro activity compared with native peptide (%) vs. GLP-1 (human GLP-1 receptor): 135%
- In vitro activity compared with native peptide (%) vs. Glucagon (human GCG receptor): 2.2%
- In vitro activity compared with native peptide (%) vs. GIP (human GIP receptor): 2.4%

B4: Triple agonist of SEQ ID NO: 32 (peptide)
peptide: H[Aib]QGTFTSDYSKYLDEKACKDFVQWLLDGGPSSGAPPPS
modifications: bridge 16-20
- In vitro activity compared with native peptide (%) vs. GLP-1 (human GLP-1 receptor): 151%
- In vitro activity compared with native peptide (%) vs. Glucagon (human GCG receptor): 1.7%
- In vitro activity compared with native peptide (%) vs. GIP (human GIP receptor): 8.8%

B5: Triple agonist of SEQ ID NO: 29 (peptide)
peptide: H[Aib]QGTFTSDYSKYLDEKAAKEFVQWLLNTC
modifications: bridge 16-20
- In vitro activity compared with native peptide (%) vs. GLP-1 (human GLP-1 receptor): 38.5%
- In vitro activity compared with native peptide (%) vs. Glucagon (human GCG receptor): 6%
- In vitro activity compared with native peptide (%) vs. GIP (human GIP receptor): < 0.1%

B6: Triple agonist of SEQ ID NO: 33 (peptide)
peptide: H[Aib]QGTFTSDYSIAMDEIHQKDFVNWLLAQKC
modifications: bridge 16-20
- In vitro activity compared with native peptide (%) vs. GLP-1 (human GLP-1 receptor): 24.5%
- In vitro activity compared with native peptide (%) vs. Glucagon (human GCG receptor): < 0.1%
- In vitro activity compared with native peptide (%) vs. GIP (human GIP receptor): 10.4%

B7: Triple agonist of SEQ ID NO: 28 (peptide)
peptide: H[Aib]QGTFTSDYSKYLDEKRAQEFVCWLLAQKGKKNDWKHNIT
- In vitro activity compared with native peptide (%) vs. GLP-1 (human GLP-1 receptor): 17.2%
- In vitro activity compared with native peptide (%) vs. Glucagon (human GCG receptor): 1.6%
- In vitro activity compared with native peptide (%) vs. GIP (human GIP receptor): < 0.1%
